Source: patent US12303551B2, “Cellular immunotherapy compositions and uses thereof” (CERO THERPEUTICS HOLDINGS, INC., priority 2018, dated 2025)

Legend:
[1] = test system: HCC827 NSCLC adenocarcinoma cells; assay: FACS phagocytosis assay with pHrodo-red labeled HCC827 cells; assay type: cell-based; details: for % phagocytosis (pHrodo-positivity): overnight co-culture with HCC827
Description: FIG. 67B is a bar graph of frequency of phagocytosis among CER-modified CD4+_T cells vs. CER-modified CD8+ T cells
CD4+ or CD3+ T cells were purified from PBMCs, activated, and transduced with lentiviral vector comprising hCER104 nucleic acid. hCER104 is a human CER104 construct comprising a Tim4 binding domain, a Tim4 transmembrane domain, TLR8 engulfment signaling domain, and Dap12 engulfment signaling domain and comprises an amino acid sequence of SEQ ID NO:176. HCC827 cells harbor an EGFR mutation and treatment with EGFR inhibitor osimertinib induces exposure of phosphatidylserine on the cell surface. Transduced T cells were expanded. CER-modified T cells were co-cultured with pHrodo-red labeled HCC827 NSCLC adenocarcinoma cells overnight and evaluated by FACs for pHrodo-positive signals to detect phagocytosis of HCC827 target cells (see, FIG. 67A, box inside FACs plot indicates % phagocytosis). T cell subsets were analyzed for their capacity to phagocytosis using antibody staining. Frequency of in vitro phagocytosis among CD4+ CER-modified T cells was much higher than CD8+ CER-modified T cells (see, FIG. 67B).

[2] = test system: HPV+ SCC152/luceriferase+ cells; assay: SCC152/luciferase xenograft in NSG mice, bioluminescence imaging; assay type: in vivo; details: CER CD4+ T cells added 1:1 to HPV E7 CD8+ T cells
Description: HPV+ SCC152 engrafted NSG mice were treated with HPV E7 TCR modified CD8+ T cells+CD4+ T cells (mock transduced), HPV E7 TCR modified CD8+ T cells+hCER104 modified CD4+ T cells, or untreated. FIG. 74B is a graph of mean values of bioluminescence signal intensities obtained for treatment group.
HPV+ SCC152/luceriferase^+ cells were engrafted in NSG mice. Once tumors were established, mice were treated with HPV E7 specific TCR (SEQ ID NO:84) modified CD8+ T cells+mock transduced CD4+ T cells, HPV E7 specific TCR modified CD8+ T cells+hCER104 (SEQ ID NO:176) modified CD4+ T cells, or untreated (n=5 per treatment group). HPV E7 CD8+ T cells and hCER104 CD4+ T cells were administered at a 1:1 ratio. Tumor volume was measured over time by bioluminescence imaging (see, FIGS. 74A-74B).

[3] = test system: HCC827 NSCLC cells; assay: FACS phagocytosis assay of TAMRA-SE labeled HCC827 cells with or without bafilomycin; assay type: cell-based; details: CER-modified T cells, osimertinib treated HCC827, FACS
Description: FIGS. 73A-73B show ablation of CER-induced phagocytosis by bafilomycin, an inhibitor of phagolysosome V-ATPase. CER104-modified CD4+ T cells and mock transduced CD4+ T cells (control) were co-cultured with HCC827 cells that were labeled with TAMRA-SE fluorescent dye and treated with osimertinib. Phagocytosis was quantified by FACs.
T cells were transduced with lentiviral vector comprising hCER104 nucleic acid as described in Example 6. hCER104 modified T cells were co-cultured with HCC827 adenocarcinoma cells with or without osimertinib. […] FACs plots from in vitro phagocytosis assays in hCER104 modified T cells or mock transduced control T cells are shown in FIG. 73B.

[4] = test system: HCC827 NSCLC adenocarcinoma cells; assay: HCC827 viability (MTT) and phase contrast microscopy after co-culture with or without osimertinib; assay type: cell-based
Description: Assays were performed at an effector to target cell ratio of 5:1 in the presence or absence of an EGFR small molecular inhibitor (1 nM osimertinib). Co-culture of hCER104 modified CD3+ T cells was compared with co-culture of purified hCER104 modified CD4+ T cells. Cell viability was quantified using 3-(4,5-dimethylthiazol-2-yl)-2,5-diphenyltetrazolium bromide (MTT) assay.
Specific target cell killing of HCC827 observed in hCER104 modified T cells in the presence of osimertinib.
hCER104 modified CD3+ T cells and hCER104 modified CD4+ T cells were co-cultured with HCC827 NSCLC adenocarcinoma cells treated for 48 hours with or without 1 nM osimertinib at an effector to target cell ratio of 5:1. Mock transduced T cells were used as control.

[5] = test system: E6/E7-specific human TCR/NFAT reporter cell line; assay: Antigen cross-presentation assay with E6/E7 TCR Jurkat NFAT luciferase reporter cells; assay type: cell-based; details: CD4+ and CD8+ CER T cells after phagocytosing HPV+ tumor cells; compared to mock transduced T cells
Description: In a phagocytic assay step, CD4+ and CD8+ T cell lines expressing CERs were co-cultured with the CD4+ and CD8+ T cells expressing HPV E7 specific TCR and SCC152 (HPV+) cells overnight. The following day CER+ T cells were subsequently FACS-sorted. FACS plot depicts CT violet^+ CERs. Following FACS purification, antigen presentation of HPV oncoproteins was evaluated. CER-expressing cells were co-cultured at a 1:2 ratio with E6 & E7-specific TCR/NFAT reporter cell lines, and NFAT activation measured over time using a plate reader.
CER-expressing CD4^+ and CD8^+ T cell lines, after phagocytosing HPV^+ tumor cells, are capable of cross-presentation of E7 HPV oncoproteins to E7 TCR/NFAT reporter-expressing T cells as measured by NFAT activation.
CD4+ and CD8+ CER-expressing T cell lines were established from human PBMCs. […]
For assessing MHC-I cross-presentation, SCC152 HPV^+ cells were co-cultured overnight with CER123-expressing CD4+ and CD8+ T cells or mock-transduced (vector only) T cells in the presence of T cells expressing an E7-specific TCR. […] NFAT activation was assessed at serial time points (0, 6, 12, 24, and 72 hrs) by measuring luciferase activity in cell culture supernatants. […] Induction of E711-19-specific Jurkat T cells were quantified by luminescence of NFAT signaling at indicated time points and compared to Mock (vector-alone) transduced T cells (FIG. 63).

B1: hCER104: human CER104 construct: Tim4 binding domain, Tim4 transmembrane domain, TLR8 and Dap12 engulfment signaling domains; SEQ ID NO:176 (protein)
chain: ETVVTEVLGHRVTLPCLYSSWSHNSNSMCWGKDQCPYSGCKEALIRTDGMRVTSRKSAKYRLQGTIPRGDVSLTILNPSESDSGVYCCRIEVPGWFNDVKINVRLNLQRASTTTHRTATTTTRRTTTTSPTTTRQMTTTPAALPTTVVTTPDLTTGTPLQMTTIAVFTTANTCLSLTPSTLPEEATGLLTPEPSKEGPILTAESETVLPSDSWSSVESTSADTVLLTSKESKVWDLPSTSHVSMWKTSDSVSSPQPGASDTAVPEQNKTTKTGQMDGIPMSMKNEMPISQLLMIIAPSLGFVLFALFVAFLHHLFYWDVWFIYNVCLAKVKGYRSLSTSQTFYDAYISYDTKDASVTDWVINELRYHLEESRDKNVLLCLEERDWDPGLAIIDNLMQSINQSKKTVFVLTKKYAKSWNFKTAFYLALQRLMDENMDVIIFILLEPVLQHSQYLRLRQRICKSSILQWPDNPKAEGLFWQTLRNVVLTENDSRYNNMYVDSIKQYYFLGRLVPRGRGAAEAATRKQRITETESPYQELQGQRSDVYSDLNTQRPYYK
modifications: hCER104
% phagocytosis (pHrodo-positivity) ([1]; CER-modified CD4+ T cells): 42.0% | % phagocytosis (pHrodo-positivity) ([1]; CER-modified CD8+ T cells): 9.81% | frequency of in vitro phagocytosis, CD4+ versus CD8+ CER-modified T cells ([1]; HCC827 target cells): much higher | tumor killing (bioluminescence) [2]: enhanced tumor killing in vivo | phagocytosis of fluorescent dye-labeled HCC827 cells [3]: exhibited phagocytosis | killing of HCC827 cells, phase contrast microscopy ([4]; 48 hours co-culture, CD4+ and CD3+ T cells, in the presence of osimertinib): specific cell killing | HCC827 cell viability (MTT), CD4+ versus CD3+ CER-modified T cells ([4]; 48 hours, effector to target 5:1, with or without 1 nM osimertinib): lower cell viability

B2: CER123: Chimeric engulfment receptor: Tim4 binding, Tim4 transmembrane, TLR2 and TRAF6 signaling; SEQ ID NO: 164 (protein)
chain: MSKGLLLLWLVTELWWLYLTPAASEDTIIGFLGQPVTLPCHYLSWSQSRNSMCWGKGSCPNSKCNAELLRTDGTRIISRKSTKYTLLGKVQFGEVSLTISNTNRGDSGVYCCRIEVPGWFNDVKKNVRLELRRATTTKKPTTTTRPTTTPYVTTTTPELLPTTVMTTSVLPTTTPPQTLATTAFSTAVTTCPSTTPGSFSQETTKGSAFTTESETLPASNHSQRSMMTISTDIAVLRPTGSNPGILPSTSQLTTQKTTLTTSESLQKTTKSHQINSRQTILIIACCVGFVLMVLLFLAFLHRFHGLWYMKMMWAWLQAKRKPRKAPSRNICYDAFVSYSERDAYWVENLMVQELENFNPPFKLCLHKRDFIPGKWIIDNIIDSIEKSHKTVFVLSENFVKSEWCKYELDFSHFRLFDENNDAAILILLEPIEKKAIPQRFCKLRKIMNTKTYLEWPMDEAQREGFWVNLRAAIKSMSLLNCENSCGSSQSESDCCVAMASSCSAVTKDDSVGGTASTGNLSSSFMEEIQGYDVEFDPPLESKYECPICLMALREAVQTPCGHRFCKACIIKSIRDAGHKCPVDNEILLENQLFPDNFAKREILSLMVKCPNEGCLHKMELRHLEDHQAHCEFALMDCPQCQRPFQKFHINIHILKDCPRRQVSCDNCAASMAFEDKEIHDQNCPLANVICEYCNTILIREQMPNHYDLDCPTAPIPCTFSTFGCHEKMQRNHLARHLQENTQSHMRMLA
modifications: CER123, amino acids 1-22 are signal peptide
cross-presentation of HPV E7 oncoproteins (NFAT luminescence) [5]: enhanced cross-presentation efficiency
